The results in this text go back to doi:10.1101/2021.12.03.471045 (bioRxiv, 2021).

In this assay the target is early pandemic (Wuhan) SARS-CoV-2 RBD (SARS-CoV-2, UniProt P0DTC2). Description: crystal structure. Conditions: both partners purified.

B1: mAb 158 Fab (Fab, V domains shown)
VH: EVQLLESGGDLIQPGGSLRLSCAASGVTVSSNYMSWVRQAPGKGLEWVSIIYPGGSTFYADSVKGRFTISRDNSKNTLYLQMHSLRAEDTAVYYCARDLGSGDMDVWGKGTTVTVSS
VL: DIVMTQSPSFLSASVGDRVTITCRASQGISSYLAWYQQKPGKAPKLLIQAASTLQSGVPSRFSGSGSGTEFTLTISSLQPEDFATYYCQQLNSYRYTFGQGTKVEIK
Turning to B1, the binding result is “binds”.

B2: mAb 58 Fab (Fab, V domains shown)
VH: QVQLVESGGGLVQPGRSLRLSCAASGFTFDDYAMHWVRQPPGKGLEWVSGVSWNSGTIGYADSVKGRFIISRDNAKNSLYLQMNSLKAEDTALYYCAREVGGTFGVLISREGGLDYWGQGTLVTVSS
VL: SYELTQPPSVSVAPGQTARITCGGNTIGSKSVHWYQQRPGQAPVLVVYDDSDRPSGIPERFSGSNSGNTATLTISRVEAGDEADYYCQVWDSSSDRVVFGGGTKLTVL
Take B2: the binding result was “binds”.
